The RNAGym collection of RNA variant scans (doi:10.7554/elife.90254)

B1: LINE1-full (parent)
chain: UACGUAGGUGGUUUUCCCCUGAUAGUGCUAAGGGGGCCUGGAAGUUUGGACUGGGCAGAGCUCAACACAGCGUGGCAAAGUGGCUGUGGCUAGACUGCCUCUCUGGAUUCCUCGUCACUCAGCAGGGCAUCUCUGAGAGAAAUGCC

Variants of: B1
Experiment: self-cleavage, relative activity (ratio to wild type); higher = more cleavage; in vitro, sequencing; the parent is a self-cleaving ribozyme
A59G C116U gave a self-cleavage of 0.07.
For U9C G80A, the self-cleavage was 1.65.
With A79G U100A the self-cleavage was 0.71.
In the case of U52A G135C, the self-cleavage is reported as 1.82.
In the case of C18A A138U, the self-cleavage is reported as 1.66.
With U26C U115A the self-cleavage was 1.33.
With A50U U108G the self-cleavage was 1.11.
For U29C U91C, the self-cleavage was 1.38.
G55A U96A gave a self-cleavage of 0.05.
With A22G U115C the self-cleavage was 1.18.
In the case of U109C A124U, the self-cleavage is reported as 1.64.
For A43G G127U, the self-cleavage was 1.87.
In the case of U52C A124G, the self-cleavage is reported as 0.48.
For U9A U91A, the self-cleavage was 0.53.
With U96C A124G the self-cleavage was 0.06.
Work on A43U yielded a self-cleavage of 1.26.
For U9C G139A, the self-cleavage was 1.09.
With C28G A77G the self-cleavage was 0.89.
Work on U12C A129U yielded a self-cleavage of 1.53.
In the case of U12C A129C, the self-cleavage is reported as 1.99.
Work on G4A U81A yielded a self-cleavage of 1.34.
Work on A31C A59C yielded a self-cleavage of 0.61.
With G7A U14C the self-cleavage was 0.88.
U13C G114U showed a self-cleavage of 1.65.
Work on U13C G114A yielded a self-cleavage of 1.16.
Work on C19A U62C yielded a self-cleavage of 0.28.
In the case of A64G C123U, the self-cleavage is reported as 0.26.
U13A U20C gave a self-cleavage of 1.03.
U52C U112A gave a self-cleavage of 0.99.
C61U U62G gave a self-cleavage of 0.01.
In the case of U62C U73A, the self-cleavage is reported as 0.03.
A107G U109A showed a self-cleavage of 1.83.
Variant U112C U130G has a self-cleavage of 1.56.
With A77G A107G the self-cleavage was 2.08.
With A30U the self-cleavage was 1.1.
For U45C A59G, the self-cleavage was 0.1.
In the case of G8A U115C, the self-cleavage is reported as 1.33.
For G40A G106A, the self-cleavage was 1.23.
Variant U62C U104C has a self-cleavage of 0.07.
U15C U23G showed a self-cleavage of 1.31.
With G48U G125A the self-cleavage was 1.17.
For C16A U81A, the self-cleavage was 0.75.
With U45C G93A the self-cleavage was 0.07.
U102C A107G showed a self-cleavage of 1.67.
A42G U119C gave a self-cleavage of 1.35.
In the case of G127U A140G, the self-cleavage is reported as 1.27.
Work on C133A C145A yielded a self-cleavage of 1.51.
U1C A79G gave a self-cleavage of 0.86.
With U12C G41U the self-cleavage was 1.25.
Variant U73C C118A has a self-cleavage of 1.46.
U46C A78G showed a self-cleavage of 1.62.
With U100C U134C the self-cleavage was 2.01.
For C123U A142G, the self-cleavage was 1.32.
Variant G34A U108G has a self-cleavage of 1.55.
U115C A124U showed a self-cleavage of 1.69.
In the case of U39C G127U, the self-cleavage is reported as 0.87.
For U26A A59U, the self-cleavage was 0.65.
C28A A124G gave a self-cleavage of 0.56.
Variant A42G G82A has a self-cleavage of 1.95.
Variant G58A U143C has a self-cleavage of 0.
U14C A124U showed a self-cleavage of 1.25.
U52G G58A gave a self-cleavage of 0.09.
C113A showed a self-cleavage of 1.01.
Variant U119C A129G has a self-cleavage of 1.88.
Variant C76U C101A has a self-cleavage of 1.6.
Variant U20A C95A has a self-cleavage of 0.09.
For C28U A92U, the self-cleavage was 0.43.
Work on U96C C123U yielded a self-cleavage of 0.04.
Variant U96C C120U has a self-cleavage of 0.2.
With U46C U96A the self-cleavage was 0.08.
With U87C U112C the self-cleavage was 0.23.
Variant U46C A79G has a self-cleavage of 1.29.
Work on U9A A129G yielded a self-cleavage of 1.24.
For G74A A121G, the self-cleavage was 1.43.
Variant G35A U52A has a self-cleavage of 0.86.
G82A A117G showed a self-cleavage of 1.77.
In the case of U46A U132A, the self-cleavage is reported as 1.09.
With C18U C56U the self-cleavage was 0.24.
A59G C146U showed a self-cleavage of 0.12.
Variant A50U U96G has a self-cleavage of 0.3.
U20A A24U gave a self-cleavage of 1.41.
For U14C C99U, the self-cleavage was 0.75.
U1C U62A gave a self-cleavage of 0.05.
For U26A A31U, the self-cleavage was 1.43.
With U5C U87C the self-cleavage was 0.15.
For A22G U45A, the self-cleavage was 0.94.
Variant G4U U109C has a self-cleavage of 1.07.
With A24G C146U the self-cleavage was 1.61.
In the case of U91A A92U, the self-cleavage is reported as 1.33.
For U102A U115C, the self-cleavage was 1.88.
Work on U47A A77C yielded a self-cleavage of 1.6.
G8U U14C gave a self-cleavage of 2.04.
U62C U91G showed a self-cleavage of 0.
In the case of U73C A107G, the self-cleavage is reported as 2.23.
With A6G U52A the self-cleavage was 0.43.
A24G G106A gave a self-cleavage of 0.78.
G53U U73C gave a self-cleavage of 1.22.
Work on A140G A142C yielded a self-cleavage of 1.4.
In the case of A117G U130A, the self-cleavage is reported as 1.85.
With G40U A78G the self-cleavage was 0.81.
Variant U13C U52A has a self-cleavage of 1.44.
U12C U143A gave a self-cleavage of 1.25.
In the case of G40A A129C, the self-cleavage is reported as 1.63.
With G88A U143A the self-cleavage was 0.07.
With A77U C110U the self-cleavage was 0.94.
With C37U A107G the self-cleavage was 1.07.
Variant U14C G60A has a self-cleavage of 0.11.
With A65G C123U the self-cleavage was 0.04.
U15A A121C gave a self-cleavage of 0.82.
Variant U23C A141G has a self-cleavage of 1.4.
For U62C C123U, the self-cleavage was 0.01.
Work on U9A G97A yielded a self-cleavage of 0.12.
Variant A50C A124G has a self-cleavage of 1.29.
G7U A77U showed a self-cleavage of 1.04.
In the case of U39C U132C, the self-cleavage is reported as 1.32.
With U45A A64U the self-cleavage was 0.37.
G8A A79G gave a self-cleavage of 1.36.
For A78C G122A, the self-cleavage was 1.41.
G7U U62C gave a self-cleavage of 0.04.
With G88A U134C the self-cleavage was 0.08.
With U15C U46A the self-cleavage was 1.41.
Variant U15C U46G has a self-cleavage of 1.15.
With U13A G114A the self-cleavage was 1.03.
In the case of U62C U100C, the self-cleavage is reported as 0.09.
For U47A U119C, the self-cleavage was 1.53.
G70U U112C gave a self-cleavage of 0.06.
In the case of G127A A138U, the self-cleavage is reported as 1.5.
In the case of U14C C37U, the self-cleavage is reported as 0.95.
Variant U20A A22G has a self-cleavage of 0.69.
In the case of U15A U46C, the self-cleavage is reported as 0.76.
With G48A U130C the self-cleavage was 1.53.
For A69G G93U, the self-cleavage was 0.01.
For A64G C113A, the self-cleavage was 0.17.
With A2G G72A the self-cleavage was 1.15.
For C16U U132C, the self-cleavage was 1.12.
Variant C3G has a self-cleavage of 1.34.
G10U U13C showed a self-cleavage of 0.83.
In the case of G8C A22G, the self-cleavage is reported as 0.
A42U U119A gave a self-cleavage of 0.98.
Variant U14C A50G has a self-cleavage of 1.08.
U39C C90U showed a self-cleavage of 0.07.
In the case of G27A G53A, the self-cleavage is reported as 0.94.
Variant U12G A65G has a self-cleavage of 0.23.
With G125A C146U the self-cleavage was 1.36.
For G80A A121C, the self-cleavage was 2.91.
With A77U U104C the self-cleavage was 1.74.
For A31G C131U, the self-cleavage was 0.61.
Work on G40A U46A yielded a self-cleavage of 1.23.
U100A A142U showed a self-cleavage of 0.74.
For A57U C128U, the self-cleavage was 0.11.
In the case of U52A G58A, the self-cleavage is reported as 0.
G8A G70A showed a self-cleavage of 0.17.
G8A A64G gave a self-cleavage of 0.42.
G32A U132C showed a self-cleavage of 2.03.
Variant A69U A117G has a self-cleavage of 0.08.
For A65G A78G, the self-cleavage was 0.04.
With A42U A141G the self-cleavage was 0.9.
Work on A30U G89U yielded a self-cleavage of 0.03.
Variant A2G A129U has a self-cleavage of 0.62.
With G114A U119A the self-cleavage was 1.26.
Variant U91C G97A has a self-cleavage of 0.05.
In the case of C95U U96C, the self-cleavage is reported as 0.07.
Work on U96A A121C yielded a self-cleavage of 0.06.
For U100A C145U, the self-cleavage was 1.15.
C76A U134A showed a self-cleavage of 0.84.
With A6G A92U the self-cleavage was 1.23.
Work on G139U A140G yielded a self-cleavage of 1.23.
